This passage reports binding as percent of wild-type level (ß-galactosidase activity) (% of wild-type levels) results from article PMC7522779.

The target of this assay is Pex14p-S266D, Gal4p fusion protein for yeast two-hybrid (S. cerevisiae) (UniProt P53112). The assay can be described thus: two-hybrid; liquid ß-galactosidase assay with 2-nitrophenyl β-D-galactopyranoside; GAL4 BD and AD fusions in strain PCY2 pex14Δ; triplicate measurements of three independent transformants.

A value given as a limit tells only on which side of the number the result lay.

Sequence of UniProt P53112 (P53112 whole entry S266D, the tested form may be a part): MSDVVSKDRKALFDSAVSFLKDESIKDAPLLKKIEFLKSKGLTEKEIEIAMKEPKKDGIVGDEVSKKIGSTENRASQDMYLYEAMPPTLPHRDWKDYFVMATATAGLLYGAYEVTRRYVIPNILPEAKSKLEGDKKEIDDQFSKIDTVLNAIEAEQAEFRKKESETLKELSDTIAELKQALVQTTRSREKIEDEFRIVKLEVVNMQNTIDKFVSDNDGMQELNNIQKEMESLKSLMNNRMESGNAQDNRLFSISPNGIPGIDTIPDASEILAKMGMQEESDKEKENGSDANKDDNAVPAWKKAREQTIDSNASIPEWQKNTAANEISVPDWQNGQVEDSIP

Take “Pex13p, Gal4p fusion protein for yeast two-hybrid (from UniProt P80667 1-386) (natural protein)”: the binding as percent of wild-type level (ß-galactosidase activity) (% of wild-type levels) was under 50.
